Source: paper doi:10.1101/2022.05.01.490205 (bioRxiv, 2022)

Target: NRR-containing SynNotch receptor (Homo sapiens, UniProt P46531, chimera)
Assay: immunostaining of cells or tissue

Chain of NRR-containing SynNotch receptor (P46531 whole entry, looked up, change not shown): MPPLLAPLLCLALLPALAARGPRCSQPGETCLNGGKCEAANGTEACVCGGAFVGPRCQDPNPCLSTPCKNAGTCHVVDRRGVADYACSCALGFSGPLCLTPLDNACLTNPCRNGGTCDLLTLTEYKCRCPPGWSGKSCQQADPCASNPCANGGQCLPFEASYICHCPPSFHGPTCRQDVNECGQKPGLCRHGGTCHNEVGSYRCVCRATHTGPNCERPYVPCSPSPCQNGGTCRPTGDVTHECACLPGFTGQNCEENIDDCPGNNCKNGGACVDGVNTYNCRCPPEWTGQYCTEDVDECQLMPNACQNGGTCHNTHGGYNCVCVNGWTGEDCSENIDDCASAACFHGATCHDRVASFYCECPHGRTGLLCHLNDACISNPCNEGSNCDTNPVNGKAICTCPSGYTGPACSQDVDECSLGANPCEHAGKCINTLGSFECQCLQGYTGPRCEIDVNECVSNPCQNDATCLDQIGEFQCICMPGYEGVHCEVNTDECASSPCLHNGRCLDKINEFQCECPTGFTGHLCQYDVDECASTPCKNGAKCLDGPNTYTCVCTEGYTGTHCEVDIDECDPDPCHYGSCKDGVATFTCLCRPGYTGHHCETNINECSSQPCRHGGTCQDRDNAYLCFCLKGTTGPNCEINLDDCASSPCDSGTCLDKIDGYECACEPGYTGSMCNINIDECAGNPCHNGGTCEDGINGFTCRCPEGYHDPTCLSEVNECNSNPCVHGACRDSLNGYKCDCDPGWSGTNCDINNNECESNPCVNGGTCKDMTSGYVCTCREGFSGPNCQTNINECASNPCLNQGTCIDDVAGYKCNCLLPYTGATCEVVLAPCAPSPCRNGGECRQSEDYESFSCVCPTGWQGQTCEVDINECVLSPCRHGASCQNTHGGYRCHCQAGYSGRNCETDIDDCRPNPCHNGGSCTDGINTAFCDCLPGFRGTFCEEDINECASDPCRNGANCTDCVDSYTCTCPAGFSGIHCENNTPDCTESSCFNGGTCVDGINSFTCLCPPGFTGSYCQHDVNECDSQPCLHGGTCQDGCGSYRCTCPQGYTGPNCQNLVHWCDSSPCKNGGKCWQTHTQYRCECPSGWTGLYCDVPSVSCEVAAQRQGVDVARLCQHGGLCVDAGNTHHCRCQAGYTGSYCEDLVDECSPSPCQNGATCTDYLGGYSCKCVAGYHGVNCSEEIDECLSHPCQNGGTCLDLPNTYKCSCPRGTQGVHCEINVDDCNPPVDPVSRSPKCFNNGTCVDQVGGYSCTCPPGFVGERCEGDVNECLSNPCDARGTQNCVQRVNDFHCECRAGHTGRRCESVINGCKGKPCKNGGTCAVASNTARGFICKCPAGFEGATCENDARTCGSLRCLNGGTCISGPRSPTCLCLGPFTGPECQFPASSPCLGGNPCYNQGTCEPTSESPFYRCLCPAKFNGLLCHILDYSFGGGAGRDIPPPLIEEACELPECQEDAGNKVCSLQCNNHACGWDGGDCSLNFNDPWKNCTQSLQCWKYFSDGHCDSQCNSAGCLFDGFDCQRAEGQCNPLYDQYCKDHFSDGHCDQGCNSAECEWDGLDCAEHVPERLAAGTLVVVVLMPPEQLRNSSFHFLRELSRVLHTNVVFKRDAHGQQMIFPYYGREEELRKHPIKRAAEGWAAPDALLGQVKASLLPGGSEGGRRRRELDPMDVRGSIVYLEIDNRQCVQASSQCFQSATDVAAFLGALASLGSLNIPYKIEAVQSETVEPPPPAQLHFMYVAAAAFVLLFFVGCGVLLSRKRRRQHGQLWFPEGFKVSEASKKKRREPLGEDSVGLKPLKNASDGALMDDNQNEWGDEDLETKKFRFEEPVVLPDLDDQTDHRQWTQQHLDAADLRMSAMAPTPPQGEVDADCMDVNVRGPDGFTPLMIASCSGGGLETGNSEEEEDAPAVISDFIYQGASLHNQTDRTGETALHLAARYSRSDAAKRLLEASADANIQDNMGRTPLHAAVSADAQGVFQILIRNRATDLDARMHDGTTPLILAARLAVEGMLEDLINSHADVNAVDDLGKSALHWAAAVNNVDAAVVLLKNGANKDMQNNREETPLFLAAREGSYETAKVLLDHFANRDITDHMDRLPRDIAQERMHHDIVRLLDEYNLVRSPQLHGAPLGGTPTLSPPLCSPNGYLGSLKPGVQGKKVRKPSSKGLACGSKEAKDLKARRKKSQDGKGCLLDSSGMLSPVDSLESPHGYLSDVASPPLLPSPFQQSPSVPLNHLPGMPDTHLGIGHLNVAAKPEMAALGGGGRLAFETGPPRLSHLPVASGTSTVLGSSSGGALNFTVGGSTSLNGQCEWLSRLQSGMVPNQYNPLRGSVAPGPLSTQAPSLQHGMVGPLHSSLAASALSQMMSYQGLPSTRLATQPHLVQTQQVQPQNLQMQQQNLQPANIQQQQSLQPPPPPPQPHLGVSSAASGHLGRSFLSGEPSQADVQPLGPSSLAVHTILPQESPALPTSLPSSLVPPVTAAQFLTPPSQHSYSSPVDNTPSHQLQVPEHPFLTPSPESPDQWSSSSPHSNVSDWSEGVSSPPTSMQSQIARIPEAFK

- binding result: binds
B1: soluble anti-NRR scFv (scFv, V domains shown)
VH: EVQLVESGGGLVQPGGSLRLSCAASGFTFSSYWIHWVRQAPGKGLEWVARINPPNRSNQYADSVKGRFTISADTSKNTAYLQMNSLRAEDTAVYYCARGSGFRWVMDYWGQGTLVTVSS
VL: DIQMTQSPSSLSASVGDRVTITCRASQDVSTAVAWYQQKPGKAPKLLIYSASFLYSGVPSRFSGSGSGTDFTLTISSLQPEDFATYYCQQFYTTPSTFGQGTKVEIK
